Experimental findings from paper PMC3642871 (Biochemistry, 2008) are described below.

A word on the stoichiometry N: it is a count of units in the complex or per binding partner.

The chains are these.
B2: Recombinant, soluble huMIF receptor ectodomain (sCD74 73-232) (domain or fragment, UniProt P04233-2 73-232, looked up)
chain: QQQGRLDKLTVTSQNLQLENLRMKLPKPPKPVSKMRMATPLLMQALPMGALPQGPMQNATKYGNMTEDHVMHLLQNADPLKVYPPLKGSFPENLRHLKNTMETIDWKVFESWMHHWLLFEMSRHSLEQKPTDAPPKESLELEDPSSGLGVTKQDLGPVPM

Series [1] deals with the molecule itself. Description: AUC.
Series [2] concerns the target B2. The series is described as follows: ELISA.
Series [3] has as its target Biotinylated huMIF (human, UniProt P14174 2-115, biotin (sites not given)). The series is described as follows: ELISA. For orientation: In an ELISA, binding on a coated surface is turned into a signal by an enzyme label.

B1: ΔC5 huMIF(1-109) (domain or fragment, human, UniProt P14174 2-110, looked up)
chain: PMFIVNTNVPRASVPDGFLSELTQQLAQATGKPPQYIAVHVVPDQLMAFGGSSEPCALCSLHSIGKIGGAQNRSYSKLLCGLLAERLRISPDRVYINYYDMNAANVGWN
For the molecule B1, the “stoichiometry N” value in series [1] stood at 3. Moreover, the binding result in series [2] is reported as “binds”. B2: the binding result in series [3] is on record as “binds”.

B3: P107 huMIF (natural protein, human, UniProt P14174 2-115, looked up)
chain: PMFIVNTNVPRASVPDGFLSELTQQLAQATGKPPQYIAVHVVPDQLMAFGGSSEPCALCSLHSIGKIGGAQNRSYSKLLCGLLAERLRISPDRVYINYYDMNAANVPGWNNSTFA
With B3, the “stoichiometry N” value in series [1] was 3.

B4: ΔC10 huMIF(1-104) (domain or fragment, human, UniProt P14174 2-105, looked up)
chain: PMFIVNTNVPRASVPDGFLSELTQQLAQATGKPPQYIAVHVVPDQLMAFGGSSEPCALCSLHSIGKIGGAQNRSYSKLLCGLLAERLRISPDRVYINYYDMNAA
As for B4, the “stoichiometry N” value in series [1] came to 3. For the same molecule, the binding result in series [2] was “binds”.
